The results in this text go back to publication PMC3355305, “Localized Dimerization and Nucleoid Binding Drive Gradient Formation by the Bacterial Cell Division Inhibitor MipZ” (Molecular Cell, 2012).

In the assay the test system is double-stranded oligonucleotide (ran2). The experiment in a line: SPR analysis of the interaction between MipZ and DNA. The format is binding. The protocol:
Figure S5. Surface plasmon resonance (SPR) analysis of the interaction betw een MipZ and DNA, Related to Figure 4.
(A) Effect of Mg2+ on the DNA-binding activity of MipZ. A double-stranded oligonucleotide (ran2, 700 RU) was immobilized on an SPR sensor chip and probed with MipZ (1 µM). The binding reactions were performed in buffer BC containing the indicated nucleotide (2 mM) and no (ATP + Mg2+) or 10 mM (no nucleotide, ADP, ATP) EDTA, respectively.
(B) DNA-binding specificity of MipZ. A double-stranded oligonucleotide (ran2, 500 RU) was immobilized on an SPR sensor chip and allowed to react with MipZ protein (1 µM) that had been preincubated with 2 mM ATP and a double-stranded oligonucleotide (ran2, 6 µM) (dsDNA), a single-stranded oligonucleotide (top strand of ran2, 6 µM) (ssDNA), an oligoribo-nucleotide (with a sequence analogous to the top strand of ran2, 6 µM) (RNA) or polyphosphate (25 µg/ml) (PP), respectively. A reaction performed in the absence of any competitor served as a control. […]
experimental conditions used (data not shown). The dissociation rate constant determined for the reaction without ParB was […]
obtained from crystals flash frozen in a solution of 95% 2 mM, sa mp le s were taken and analyzed for the amount ethanol/50 mM Tris (pH 8.5), and collected at ID23-2, of [α-32P]-GDP produced in the reaction as described ESRF (Grenoble, France). […]
(SPR reads the build-up and loss of mass on a sensor chip optically.)

B1: MipZ: P loop ATPase and cell division inhibitor of Caulobacter crescentus; hexahistidine-tagged in vitro, YFP fusion in FRAP (protein)
chain: MAETRVIVVGNEKGGAGKSTIAVHLVTALLYGGAKVAVIDLDLRQRTSARFFENRRAWLDNKKIELPEPLALNLSDNDVALAERPEEEQVAGFEAAFARAMAECDFILIDTPGGDSAITRMAHGRADLVVTPMNDSFVDFDMLGTVDPVTLELTKPSLYSLTVWEGRKQRALSGQRQAMDWVVLRNRLATTEARNRKRLEDRLNALAKRVGFRIGPGLRDRVIYRELFPFGLTIADLSPQVRPVPVSLQHLAARQELRALMHSLGLSAYSGETMLAAQ
modifications: left off: His6, end not stated, state not stated
notes: hexahistidine-tagged in vitro, YFP fusion in FRAP
As to B1, the “rate constant for the dissociation of MipZ from DNA (koff)” value (MipZ 0.5 µM, 2 mM ATP, without ParB) amounted to 0.025 s⁻¹. The “half-time t1/2 of dissociation of MipZ from DNA” value (in vitro) is reported as 28 s.
